In series [1] the target is T1, OcwA (Outer cell wall protein A), TherJR_2595 (Thermincola carboxydiphila, UniProt D5XBK3).
T1 construct: native signal peptide replaced by that of S. oneidensis MR-1 stc, cleaved (N-terminus EKPAD); E. coli JM109(DE3), HisTrap purified; ~62 kDa; nine c-type hemes; monomer/dimer mixture; precursor 525 residues
Description: […] NMR titration. Conditions: 100 μM FMN, 20 mM phosphate pH 7.6, 100 mM KCl, 25°C; slow exchange. Type of series: binding.

Substrate in series [2]: O=NO
Description: purified protein. Type of series: biochemical, Thermincola carboxydiphila. Particulars: up to 1 mM reduced methyl viologen, 50 mM potassium phosphate pH 7.0, 55°C, anaerobic.

As for `Cc1cc2nc3c(=O)[nH]c(=O)nc-3n(C[C@H](O)[C@H](O)[C@H](O)COP(=O)(O)O)c2cc1C` [FMN, flavin mononucleotide], the “31P NMR titration” value in series [1] was “These spectral changes arise from binding of FMN to OcwA in a slow exchange regime”.

B1: OcwA (Outer cell wall protein A), TherJR_2595 (Thermincola carboxydiphila JR) (protein)
chain: EKPADSGPAVAQNTEYVGDEACKTCHSDVHSAWSETSHGNFIKDVTKDPKALPGNFEGNYPKMLNFKAEDIQYVLLGKPGALKVQELVGKKGTFGVPADDYPVMWASWDAGKGEWEIEVEAIGEGTPWLSTCAGCHVTGLTVPTDKNPKAAKAFAGFGITCEQCHGPGAKHIKNPQGEKMVISYDAENCGQCHSRGDSVAKTPDGKPFGYPYNDEGQYVPGKKLADYYTVVSVEGDKEGKLFWPTKHAKNSHHLQYPEWLMTGHATALETLKGNGHAQDRCLKCHSAEAYLAKEGTTVTMNDAKLGVTCQVCHASHDPAATKEAFLRKPKTEICTQCHNAEGGIVAGKEVHHPHKEMNEGKIGLGFPDSPSVMYKAGVTCVDCHMPKTAGPKASHLMKVVMPKDGKANGMPDSCSSCHPGASQDYLQNVIDTWQNDIKGRLAKVKAKLDAKKAAANSQAYKEALTYYSIVAADGSNGVHNYDLAVKLLTAAEQKLQ
notes: native signal peptide replaced by that of S. oneidensis MR-1 stc, cleaved (N-terminus EKPAD); E. coli JM109(DE3), HisTrap purified; ~62 kDa; nine c-type hemes; monomer/dimer mixture; precursor 525 residues
As usually defined, the Km is the substrate concentration at which the rate is half of its maximum. For orientation: kcat means the number of substrate molecules converted per active site and unit of time at saturation. Take B1: in series [2], the Km worked out at 65 µM and the kcat stood at 0.017 s⁻¹.

The record behind these values is PMC6703420, “How Thermophilic Gram-Positive Organisms Perform Extracellular Electron Transfer: Characterization of the Cell Surface Terminal Reductase OcwA” (mBio, 2019).
